B1: YDL065C (protein, UniProt Q07418 1-339, looked up)
Peroxisomal membrane protein …: MNENEYDNFDDLDDLLDEDPTKLDEAEPDDVQAKGSVYNDSENKEKNAESKDSDGVQVANESEEDPELKEMMVDLQNEFANLMKNNGNENNVKTEDFNKLISALEEAAKVPHQQMEQGCSSLKSNSTDKGTVNGSNPGFKNIVSNTLDRLKENGNKVDTSLAEETKESQRSGQNNNIDDILSQLLDQMVASGGKESAENQFDLKDGEMDDAITKILDQMTSKEVLYEPMKEMRSEFGVWFQENGENEEHKEKIGTYKRQFNIVDEIVNIYELKDYDELKHKDRVTELLDELEQLGDSPIRSANSPLKHGNEEEELMKMLEIDGNDPNLGNLDKELTDGC
B2: YBR102C (protein, UniProt P38261 1-753, looked up)
Exocyst complex component …: MVEFSLKKARNNWKHVKKSASSPAKQKTPPSPAKPKQKTKKNPYSDLKDPATSYTLPTINARERSRVATSMQRRLSIHNTNYAPPTLDYSMPLPDMPNMIVPNDNVDSSHNNSSFTTENESVSSKGPSNSLNLSTADLSLNDSSYNKVPARSAMRNTVNPSGSNDPFNNSTSLRKMLANPHFNAKDFVHDKLGNASAITIDKFTSNLTDLSIQVQEEVKLNINKSYNEIMTVNNDLNVAMLELKRVRANINDLNEVLDQCTKIAEKRLQLQDQIDQERQGNFNNVESHSNSPALLPPLKAGQNGNLMRRDRSSVLILEKFWDTELDQLFKNVEGAQKFINSTKGRHILMNSANWMELNTTTGKPLQMVQIFILNDLVLIADKSRDKQNDFIVSQCYPLKDVTVTQEEFSTKRLLFKFSNSNSSLYECRDADECSRLLDVIRKAKDDLCDIFHVEEENSKRIRESFRYLQSTQQTPGRENNRSPNKNKRRSMGGSITPGRNVTGAMDQYLLQNLTLSMHSRPRSRDMSSTAQRLKFLDEGVEEIDIELARLRFESAVETLLDIESQLEDLSERISDEELMLLNLISLKIEQRREAISSKLSQSILSSNEIVHLKSGTENMIKLGLPEQALDLFLQNRSNFIQDLILQIGSVDNPTNYLTQLAVIRFQTIKKTVEDFQDIFKELGAKISSILVDWCSDEVDNHFKLIDKQLLNDEMLSPGSIKSSRKQIDGLKAVGLDFVYKLDEFIKKNSDKIR
B3: YDR329C (protein, UniProt P28795 1-441, looked up)
Peroxisomal biogenesis factor …: MAPNQRSRSLLQRHRGKVLISLTGIAALFTTGSVVVFFVKRWLYKQQLRITEQHFIKEQIKRRFEQTQEDSLYTIYELLPVWRMVLNENDLNLDSIVTQLKDQKNQLTRAKSSESRESSPLKSKAELWNELELKSLIKLVTVTYTVSSLILLTRLQLNILTRNEYLDSAIKLTMQQENCNKLQNRFYNWVTSWWSDPEDKADDAMVMAAKKSKKEGQEVYINEQAFLSLSWWILNKGWLSYNEIITNQIEIEFDGIHPRDTLTLEEFSSRLTNIFRNTNSQIFQQNNNNLTSILLPKDSSGQEFLLSQTLDADALTSFHSNTLVFNQLVNELTQCIESTATSIVLESLINESFHFIMNKVGIKTIAKKKPGQEDQQQYQMAVFAMSMKDCCQEMLQTTAGSSHSGSVNEYLATLDSVQPLDDLSASVYSNFGVSSSFSFKP
B4: YOL147C (protein, UniProt Q12462 2-236, looked up)
Peroxisomal membrane protein …: VCDTLVYHPSVTRFVKFLDGSAGREKVLRLLQYLARFLAVQNSSLLARQLQAQFTTVRKFLRFLKPLNHLQAAAKFYDNKLASDNVVRVCNVLKNIFFAAYLSLDQVNLLRILKVIPVTVLTGKKIPRWSNWCWLFGLLSGLAMDLRKIQTSHAQIAAFVKAKSQSQGDEHEDHKKVLGKAYQDRYTALRRLFWDAADSFIVLNNLGYLSSNEEYVALSGVVTSILGMQDMWKAT
B5: ABP1 E21E (protein, UniProt P15891 2-592, looked up)
Actin-binding protein: ALEPIDYTTHSREIDAEYLKIVRGSDPDTTWLIISPNAKKEYEPESTGSSFHDFLQLFDETKVQYGLARVSPPGSDVEKIIIIGWCPDSAPLKTRASFAANFAAVANNLFKGYHVQVTARDEDDLDENELLMKISNAAGARYSIQTSSKQQGKASTPPVKKSFTPSKSPAPVSKKEPVKTPSPAPAAKISSRVNDNNDDDDWNEPELKERDFDQAPLKPNQSSYKPIGKIDLQKVIAEEKAKEDPRLVQKPTAAGSKIDPSSDIANLKNESKLKRDSEFNSFLGTTKPPSMTESSLKNDDDKVIKGFRNEKSPAQLWAERKAKQNSGNAETKAEAPKPEVPEDEPEGEPDVKDLKSKFEGLAASEKEEEEMENKFAPPPKKSEPTIISPKPFSKPQEPVKAEEAEQPKTDYKKIGNPLPGMHIEADNEEEPEENDDDWDDDEDEAAQPPLPSRNVASGAPVQKEEPEQEEIAPSLPSRNSIPAPKQEEAPEQAPEEEIEEEAEEAAPQLPSRSSAAPPPPPRRATPEKKPKENPWATAEYDYDAAEDNELTFVENDKIINIEFVDDDWWLGELEKDGSKGLFPSNYVSLGN
modifications: synonymous codon change E21E in SH3
B6: ABP1 D23D (protein, UniProt P15891 2-592, looked up)
Actin-binding protein: B5 Actin-binding protein
modifications: synonymous codon change D23D
B7: ABP1 N22N (protein, UniProt P15891 2-592, looked up)
Actin-binding protein: B5 Actin-binding protein
modifications: synonymous codon change N22N
B8: YLR191W (protein)
chain: EFARALYDFVPENPEMEVALKKGDLMAILSKKDPLGRDSDWWKVRTKNGNIGYIPYNYIEIIK
B9: YGL153W (protein, UniProt P53112 2-341, looked up)
Peroxisomal membrane protein …: SDVVSKDRKALFDSAVSFLKDESIKDAPLLKKIEFLKSKGLTEKEIEIAMKEPKKDGIVGDEVSKKIGSTENRASQDMYLYEAMPPTLPHRDWKDYFVMATATAGLLYGAYEVTRRYVIPNILPEAKSKLEGDKKEIDDQFSKIDTVLNAIEAEQAEFRKKESETLKELSDTIAELKQALVQTTRSREKIEDEFRIVKLEVVNMQNTIDKFVSDNDGMQELNNIQKEMESLKSLMNNRMESGNAQDNRLFSISPNGIPGIDTIPSASEILAKMGMQEESDKEKENGSDANKDDNAVPAWKKAREQTIDSNASIPEWQKNTAANEISVPDWQNGQVEDSIP

Tests used:
Type in all cases: cell-based, Saccharomyces cerevisiae
[1] = system: ABP1; test: DHFR-PCA on solid medium, bait ABP1 (Fig. 1B); settings: bait ABP1, label = prey
From the text: (§1) Supplement 41467_2021_21873_MOESM8_ESM.xlsx, sheet "Fig1B" | column: medsize; medrep; Ratio; Score

[2] = system: BEM1-1; test: DHFR-PCA on solid medium, bait BEM1-1 (Fig. 1B); settings: bait BEM1-1, label = prey; for medrep (log2 median colony size normalized to plate background, PCA score): 2-8 replicates; for Ratio (SH3-deleted/WT medrep): only significant differences showed, PPIs completely lost have a ratio of 0.1 and the gained PPIs 2.5
From the text: as §1

[3] = system: BEM1-2; test: DHFR-PCA on solid medium, bait BEM1-2 (Fig. 1B); settings: bait BEM1-2, label = prey
From the text: as §1

[4] = system: Hua2; test: Deep mutational scanning of Abp1 SH3, Abp1-Hua2 DHFR-PCA (DMS score); settings: Abp1-Hua2 DHFR-PCA; for HUA2_MTX2: frequencies normalized to the reference condition, MTX2, amino acid level; for hua2sc (DMS score): frequencies scaled to the synonymous mutation distribution
Summary of the method: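 Sequencing of the genomic SH3 locus before and after two rounds of liquid DHFR-PCA selection (72 h, 30 °C each) gave the score. Mutants covering every codon of the domain were expressed from the native ABP1 locus in diploids carrying DHFR-tagged prey.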

[5] = system: Lsb3; test: Deep mutational scanning of Abp1 SH3, Abp1-Lsb3 DHFR-PCA (DMS score); settings: Abp1-Lsb3 DHFR-PCA; for LSB3_MTX2: frequencies normalized to the reference condition, MTX2, amino acid level; for lsb3sc (DMS score): frequencies scaled to the synonymous mutation distribution
Method: Single site mutation libraries were generated by a PCR-based saturation mutagenesis method[50] as described below. The mutagenesis was carried out on the pUC19 plasmid containing the SH3 domain sequence of ABP1 flanked by its homology arms subsequently used in the CRISPR mediated genomic re-integration. We used oligos containing degenerate nucleotides (NNN) to carry out the mutagenesis at each codon of the domain sequence. In the first step of the two-step PCR procedure (short PCR step), an amplicon was generated with an oligo containing the degenerate codon which is positioned within the domain sequence, and another oligo lying outside Abp1 sequence in the plasmid. Short PCR step was carried out with the following settings: 5 min at 95 °C, 35 cycles: 20 s at 98 °C, 15 s at 60 °C, 30 s at 72 °C, and a final extension of 1 min at 72 °C. The amplicon generated in this step was used as a mega primer in the second step (long PCR step) to amplify the whole plasmid. Long PCR step was carried out with the following settings: 5 min at 95 °C, 22 cycles: 20 s at 98 °C, 15 s at 68 °C, 3 min 30 s at 72 °C, and a final extension of 5 min at 72 °C. The long PCR product was digested for 2 h at 37 °C with DpnI. The digestion product was then transformed into E. coli MC1061 competent cells. In order to obtain most of the 64 possible codons, we recovered ~1000 colonies from each plate to retrieve the plasmid single mutant libraries. Saturation mutagenesis was carried out in a codon-position-wise manner. Mutants at each position were stored separately. Library quality control was assessed by amplifying the purified plasmid DNA preparations by PCR followed by Illumina sequencing as described below. The genomic insertion of the mutant libraries (one library per amino acid position) was performed by targeting the stuffer sequence in the ABP1 SH3-deleted strain as described in the strain construction section. ABP1 SH3-deleted yeast competent cells were co-transformed with pCAS containing the stuffer-specific gRNA and PCR amplified ABP1 SH3 single position mutated libraries from the pUC19 preparations. As for the library generation, ~1000 colonies from each plate were retrieved. Glycerol stocks of yeast cells were kept for each position (58 different stocks corresponding to the 58 amino acid positions of Abp1 SH3). The stocks were also validated by Illumina sequencing (see below).
Liquid DHFR-PCA experiments were performed following the generation of the ABP1 SH3 single position mutated yeast strains and were performed in biological independent duplicates. An overnight culture was started in YPD + NAT by adding the same number of cells from each yeast mutant strain (master pool). Then, the master pool and Hua2-DHFR F[3] or Lsb3-DHFR F[3] preys strains were mixed in YPD (2:1) for mating and incubated for 8 h at 30 °C. Diploid cells were selected the first time by transferring the mixture in a YPD + NAT + HPH (OD 0.5) culture for 16 h at 30 °C. The next day, the first diploid selection was transferred in SC complete pH 6.0 + NAT + HPH at 0.5 OD and the culture was grown for 24 h at 30 °C. The validation of the yeast mutant libraries was done the next day with a fraction of the diploid cells (first DHFR-PCA experiment time point without PCA selection, reference condition S2) by amplifying ABP1 SH3 genomic sequence followed by Illumina sequencing as described in the section below. Following the selection, diploid cells OD was read using a TECAN Infinite F200 Pro, and dilutions to 0.1 OD in PCA selection media without agar in a 50 mL tube was done. Tubes were incubated at 30 °C for 72 h (second-time point of the DHFR-PCA experiment, first PCA selection). A fraction of the cells (5U OD) was collected for Illumina sequencing. The cells from the first PCA step were grown for a second PCA selection step using the same procedures. […]

[6] = only significant differences showed, PPIs completely lost have a ratio of 0.1 and the gained PPIs 2.5

Molecule | medrep (log2 median colony size normalized to plate background, PCA score) [2] | Ratio (SH3-deleted/WT medrep) [2] | HUA2_MTX2 [4] | hua2sc (DMS score) [4] | LSB3_MTX2 [5] | lsb3sc (DMS score) [5] | further results
B1 | 3.086 | 2.5 | – | – | – | – | medrep (log2 median colony size normalized to plate background, PCA score) ([1]; 2-4 replicates): 3.518; Ratio (SH3-deleted/WT medrep) [1, 6]: 1.321
B2 | 1.504 | 0.1 | – | – | – | – | medrep (log2 median colony size normalized to plate background, PCA score) ([3]; 2-8 replicates): 1.504; Ratio (SH3-deleted/WT medrep) [3, 6]: 0.1
B3 | 2.151 | 2.5 | – | – | – | – | –
B4 | 4.705 | 2.5 | – | – | – | – | –
B5 | – | – | 2.3423 | 0.7295 | 2.169 | 0.669 | –
B6 | – | – | 1.908 | 0.295 | 1.357 | -0.1431 | –
B7 | – | – | 0.8417 | -0.7711 | 0.8355 | -0.6648 | –
B8 | 3.807 | 2.5 | – | – | – | – | –
B9 | 2.088 | 2.5 | – | – | – | – | –

Source: article PMC7954794, “Protein context shapes the specificity of SH3 domain-mediated interactions in vivo” (Nature Communications, 2021)
